Measurements from patent publication US5248605.

System: HpaII restriction endonuclease (R.HpaII) (Haemophilus parainfluenzae ATCC 49669)
Assay: cleavage_in_vitro
Conditions: IPTG-induced E. coli extract; 1x REact 8 buffer, 30 min 37 C; HpaII digest pattern on agarose gel

phage lambda DNA
activity (units per g wet cells): > 50000
